Experimental data published in patent US20250084155A1 (University of Texas, published 2025).
Where a chain is given by its changes, count along the chain named.

B1: h77A-5 (antibody, V domains shown)
VH: QIQLVQSGAEVKKPGASVKVSCKASGYTFTNYGMNWVRQAPGQGLEWMGWINTYTGEPTYADDFKGRFTFTTDTSTSTAYMELRSLRSDDTAVYFCARYDHAMDYWGQGTLVTVSS
VL: DIVMTQSPDSLAVSLGERATINCKSSQSLLNSGTRKNYLAWYQQKPGQSPKLLIYWTSTRESGVPDRFSGSGSGTDFTLTISSLQAEDVAVYYCKQSYTLYTFGGGTKLEIK
B2: h77A-3 (antibody, V domains shown)
VH: B1 VH
VL: B1 VL with I2V, A19V, G105Q
B3: h77A-10 (antibody, V domains shown)
VH: B1 VH with A16S, T72A, T74E, R84S, D89E
VL: B1 VL
B4: h77A-2 (antibody, V domains shown)
VH: B1 VH
VL: B1 VL with A12S, S49P, K51R, S82N, S83T, G105Q
B5: h77A-6 (antibody, V domains shown)
VH: B1 VH with A16S, T72A, T74E, R84S, D89E
VL: B1 VL with D1E, M4L, P46A, S82D, L109V
B6: h77A-1.39 (antibody, V domains shown)
VH: B1 VH with A61S, S77R
VL: B1 VL with D1E, M4L, P46A, S82D, T99N, L109V
notes: captured by anti-human Fc
B7: h77A-1.57 (antibody, V domains shown)
VH: B1 VH with P58A, A102V
VL: B1 VL with D1E, M4L, L30V, P46A, S82D, A86T, L109V
notes: captured by anti-human Fc
B8: h77A-1.53 (antibody, V domains shown)
VH: B1 VH with T59K, A61T, S77R
VL: B1 VL with D1E, M4L, A12S, P46A, S82D, L109V
notes: captured by anti-human Fc
B9: h77A-1.54 (antibody, V domains shown)
VH: B1 VH with N31K, T59K, A61G, A102R
VL: B1 VL with D1E, M4L, P46A, S82D, L109V
notes: captured by anti-human Fc
B10: h77A-1.62 (antibody, V domains shown)
VH: B1 VH with S77T, A79G
VL: B1 VL with D1E, M4L, N22K, P46A, G70A, S82D, L109V
notes: captured by anti-human Fc
B11: h77A-1.92 (antibody, V domains shown)
VH: B1 VH with T28S, A61G
VL: B1 VL with D1E, M4L, A12T, L30F, Q44K, P46A, S82D, T99N, L109V
notes: captured by anti-human Fc
B12: h77A-1.65 (antibody, V domains shown)
VH: B1 VH with P58A, T110S
VL: B1 VL with D1E, M4L, P46S, S82D, V91I, L109V
notes: captured by anti-human Fc
B13: h77A-1.77 (antibody, V domains shown)
VH: B1 VH with A9P, T28I, A61G, A97G
VL: B1 VL with D1E, M4L, P46A, S82D, S83R, L109V
notes: captured by anti-human Fc
B14: h77A-1.55 (antibody, V domains shown)
VH: B1 VH with A9S, A61G, A102F
VL: B1 VL with D1E, M4L, A12S, P46A, S82D, L109V
notes: captured by anti-human Fc
B15: h77A-1.96 (antibody, V domains shown)
VH: B1 VH
VL: B1 VL with G105Q
notes: captured by anti-human Fc
B16: h77A-1.76 (antibody, V domains shown)
VH: B1 VH with A9V, P58T, L83V
VL: B1 VL with D1E, M4L, L30F, P46A, T80S, S82D, L109V
notes: captured by anti-human Fc
B17: h77A-1.98 (antibody, V domains shown)
VH: B1 VH with F70M
VL: B1 VL with D1E, M4L, P46A, S82D, L109V
notes: captured by anti-human Fc
B18: h77A-1.47 (antibody, V domains shown)
VH: B1 VH with A9T, A102L
VL: B1 VL with D1E, M4L, P46A, S82D, A86T, L109V
notes: captured by anti-human Fc
B19: h77A-1.43 (antibody, V domains shown)
VH: B1 VH with Q3H, A79V
VL: B1 VL with D1E, M4L, P46A, L53I, S82D, L109V
notes: captured by anti-human Fc
B20: h77A-1.91 (antibody, V domains shown)
VH: B1 VH with Q3H, T28I, A79V, A97V
VL: B1 VL with D1E, M4L, A12S, L30F, P46A, S82D, L109V
notes: captured by anti-human Fc
B21: h77A-1.70 (antibody, V domains shown)
VH: B1 VH with A61S
VL: B1 VL with D1E, M4L, A12S, Q44K, P46A, S82D, S83R, V91L, L109V
notes: captured by anti-human Fc
B22: h77A-1.45 (antibody, V domains shown)
VH: B1 VH with A9V, A79V
VL: B1 VL with D1E, M4L, P46A, S82D, T99S, L109V
notes: captured by anti-human Fc
B23: h77A-1.48 (antibody, V domains shown)
VH: B1 VH with E82D, A102Y
VL: B1 VL with D1E, M4L, S82D, L109V
notes: captured by anti-human Fc
B24: h77A-1.41 (antibody, V domains shown)
VH: B1 VH with S77T, A102V
VL: B1 VL with D1E, M4L, S82D, L109V
notes: captured by anti-human Fc
B25: h77A-1.40 (antibody, V domains shown)
VH: B1 VH with A102Y
VL: B1 VL with D1E, M4L, A12T, P46A, S82D, T99N, L109V
notes: captured by anti-human Fc
B26: h77A-1.66 (antibody, V domains shown)
VH: B1 VH with T28I, P58S, A79V
VL: B1 VL with D1E, M4L, N22K, P46A, S82D, L109V
notes: captured by anti-human Fc
B27: h77A-1.79 (antibody, V domains shown)
VH: B1 VH with N31K, T59R, A102R
VL: B1 VL with D1E, M4L, S82D, T99N, L109V
notes: captured by anti-human Fc
B28: h77A-1.85 (antibody, V domains shown)
VH: B1 VH with Q3H, T28I, A97V
VL: B1 VL with D1E, M4L, A40S, Q44K, P46S, S82D, L109V
notes: captured by anti-human Fc
B29: h77A-1.86 (antibody, V domains shown)
VH: B1 VH with A9V, P58T
VL: B1 VL with D1E, M4L, L30F, Q44K, P46A, T80S, S82D, S83R, L109V
notes: captured by anti-human Fc
B30: h77A-1.81 (antibody, V domains shown)
VH: B1 VH with Q3H, T28I, A79V, A97V
VL: B1 VL with D1E, M4L, L30F, P46A, S82D, L109V
notes: captured by anti-human Fc
B31: h77A-1.52 (antibody, V domains shown)
VH: B1 VH with A9V, T28I, T59R, A102R
VL: B1 VL with D1E, M4L, P46A, S82D, L109V
notes: captured by anti-human Fc
B32: h77A-1.50 (antibody, V domains shown)
VH: B1 VH with Q3H, A9V, A61T
VL: B1 VL with D1E, M4L, P46A, S82D, V91I, L109V
notes: captured by anti-human Fc
B33: h77A-1.97 (antibody, V domains shown)
VH: B1 VH with F70M
VL: B1 VL with G105Q
notes: captured by anti-human Fc
B34: h77A-1.64 (antibody, V domains shown)
VH: B1 VH with P58S
VL: B1 VL with D1E, M4L, Q44K, P46A, T80S, S82D, V91I, L109V
notes: captured by anti-human Fc
B35: h77A-1.80 (antibody, V domains shown)
VH: B1 VH with T59K, A102V
VL: B1 VL with D1E, M4L, A40S, L53I, S82D, L109V
notes: captured by anti-human Fc
B36: h77A-1.42 (antibody, V domains shown)
VH: B1 VH with Q3H, A97T, A102R
VL: B1 VL with D1E, M4L, P46A, S82D, L109V
notes: captured by anti-human Fc
B37: h77A-1.72 (antibody, V domains shown)
VH: B1 VH with A9P, T28I, P58T, S77T, A79V
VL: B1 VL with D1E, M4L, P46A, S82D, L109V
notes: captured by anti-human Fc
B38: h77A-1.63 (antibody, V domains shown)
VH: B1 VH with T110S
VL: B1 VL with D1E, M4L, A40T, P46S, S82D, V91I, L109V
notes: captured by anti-human Fc

What follows are binders tested against T1, HSP70 (human HSP70; the antigen of the binning, humanization and variant binding assays) (human, UniProt P0DMV8 1-641, limits assumed) (assay: BLI, antibody on sensor).
T1 construct: also called hu HSP70
T1 sequence (P0DMV8 whole entry, change not shown): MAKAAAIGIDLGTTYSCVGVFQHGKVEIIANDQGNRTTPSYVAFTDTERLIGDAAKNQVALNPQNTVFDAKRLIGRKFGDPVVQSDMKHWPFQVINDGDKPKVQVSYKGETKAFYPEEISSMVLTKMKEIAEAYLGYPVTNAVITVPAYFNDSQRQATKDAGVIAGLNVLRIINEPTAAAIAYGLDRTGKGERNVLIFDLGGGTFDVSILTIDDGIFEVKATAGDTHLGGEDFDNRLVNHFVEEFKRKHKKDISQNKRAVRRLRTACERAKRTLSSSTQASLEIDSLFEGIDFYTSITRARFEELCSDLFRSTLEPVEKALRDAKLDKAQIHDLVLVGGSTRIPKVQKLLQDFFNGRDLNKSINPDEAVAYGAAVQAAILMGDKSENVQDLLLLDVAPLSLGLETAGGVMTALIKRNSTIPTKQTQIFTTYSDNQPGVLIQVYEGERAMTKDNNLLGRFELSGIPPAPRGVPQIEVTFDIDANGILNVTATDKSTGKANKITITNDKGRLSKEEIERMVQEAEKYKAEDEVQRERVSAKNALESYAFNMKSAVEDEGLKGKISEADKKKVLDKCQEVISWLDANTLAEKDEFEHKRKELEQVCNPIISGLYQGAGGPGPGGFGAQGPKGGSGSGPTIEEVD
Description: Humanized variants were characterized for binding using biolayer interferometry (BLI). Chimeric antibodies including the murine 77A antigen binding region and human Fe regions were also tested. Antibodies and reagents were diluted out onto microwell plates and loaded into the instrument. Diluted antibodies were first immobilized onto dip-and-read sensors, and then measurements for baselines were acquired. Subsequently, the sensors were dipped into wells containing the antigen in solution, or buffer alone. The change in number of molecules bound to the sensor was quantified by measurement of the shift in the interference pattern of light during each step of the protocol. Mathematical modeling was performed based on those values and the concentrations of reagents used in the assay and used to calculate kinetics values.

Kd [nM]	koff [s⁻¹]	kon [M⁻¹ s⁻¹]	Binder
6.87	0.000353	51400	B1
4.9	0.000305	62300	B2
7.1	0.000409	57700	B3
5.13	0.000308	59900	B4
2.64	0.00014	53100	B5

These binders were tested against T1, HSP70 (human HSP70; the antigen of the …) (assay: BLI, anti-human Fc capture, antigen 100 nM).
Description: Binding assays were performed as follows. Antibody variants were immobilized using anti-human Fc onto the surface of a series of biosensors at […]. Antigen, at 100 nM, was passed over the surface to generate a binding response. Binding data for the antibody:antigen interactions were collected at 25° C. on the biosensors. In Table 14, X=610 represents captured antigen value (nM) at the beginning of the dissociation phase (measured at 610 seconds after the biosensor was initially contacted with antigen) and X=1495 represents captured antigen value (nM) at the end of the dissociation phase (measured at 1495 seconds after the biosensor was initially contacted with antigen). In Table 14, antibodies with an X=610 value greater than 0.2 and a % dissociation less than 10% are shown in bold.

% Diss [%]	Binder
21	B6
25.9	B7
11.1	B8
-41.2	B9
12.3	B10
32.4	B11
20.5	B12
32.5	B13
26.7	B14
18.8	B15
12.1	B16
34.5	B17
13.6	B18
21.1	B19
30.7	B20
11.6	B21
33.9	B22

% Diss [%]	Binder
34.5	B23
34.2	B24
11.9	B25
32.1	B26
-37.4	B27
16.1	B28
14.1	B29
30.1	B30
-115	B31
11.2	B32
27.2	B33
21	B34
-8.84	B35
33.5	B36
31.5	B37
14.2	B38
